# Measurements published in patent publication US20150224191A1 (VEGENICS, published 2015).
# T1: VEGF-C (human, UniProt P49767 103-227, limits assumed)
# T1 construct: The assay protein was probably a processed or mature form; also called vascular endothelial growth factor C
# T1 sequence: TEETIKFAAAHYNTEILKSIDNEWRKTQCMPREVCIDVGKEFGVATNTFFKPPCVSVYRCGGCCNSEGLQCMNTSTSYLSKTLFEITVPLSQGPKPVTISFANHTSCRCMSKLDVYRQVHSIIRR
# T2: VEGF-C Dimer (Homodimer of two identical chains. The nature of the dimer linkage is not stated in the passages seen.)
# T2 construct: a form of m2; also called dimer form of VEGF-C
# T2 chain 1: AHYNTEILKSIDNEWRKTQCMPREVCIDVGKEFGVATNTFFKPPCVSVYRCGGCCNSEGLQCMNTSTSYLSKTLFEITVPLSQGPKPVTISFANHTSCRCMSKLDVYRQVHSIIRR
# T2 chain 2: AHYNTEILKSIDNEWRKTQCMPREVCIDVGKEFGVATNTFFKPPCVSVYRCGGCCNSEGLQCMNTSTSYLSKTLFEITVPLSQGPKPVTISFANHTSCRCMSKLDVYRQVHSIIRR
# T3: VEGF-C Monomer
# T3 construct: a form of m2; also called monomer form of VEGF-C
# T3 chain: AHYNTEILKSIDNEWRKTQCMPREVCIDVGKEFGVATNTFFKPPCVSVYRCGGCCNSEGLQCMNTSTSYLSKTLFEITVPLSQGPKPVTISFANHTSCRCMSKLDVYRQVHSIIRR
# Key:
# VEGF-C [1] = target: T1, VEGF-C; test: BiaCore (SPR); format not described
# VEGF-C [2] = target: T1, VEGF-C; test: cell-based or functional assay
# VEGF-C [3] = target: T1, VEGF-C; test: cell-based or functional assay; remark: listed apart in the source
# VEGF-C Dimer = target: T2, VEGF-C Dimer; test: direct binding ELISA, antigen coated as capture antigen, bound VGX-100 detected with rabbit anti-human IgG-HRP, Abs 450 nm
# VEGF-C Monomer = target: T3, VEGF-C Monomer; test: as above
binder,measurement,setting,value
"VEGF-C antibody VGX-100 (antibody, human IgG1, lambda, V domains shown) VH: EVRLLESGGGLVQPGGSLRLSCAASGFTFRPRAMAWVRQAPGKGLEWVSSISAQGASAYYADSVKGRFTISRDNSKNTLYLQMNSLRAEDTAVYYCARDLSVSGFGPWGRGTMVTVSS VL: SYELTQPPSSSGTPGQRVTISCSGSSSNIGRHTVSWYQQVPGTAPKLLIYSDDHRPSGVPDRFSASKSGTSASLTITGLQSEDEADYYCAAWDDSLNGPWVFGGGTKLTVLG",Kd,VEGF-C [1],1.8 nM
same,IC50 (read off the curve); [3H]-thymidine incorporation of BA/F3-VEGFR-2/EpoR cells as percent of ligand alone; blocked: VEGF-C binding to VEGFR-2,VEGF-C [2],~0.03 µg/mL
same,IC50 (read off the curve); [3H]-thymidine incorporation of BA/F3-VEGFR-3/EpoR cells as percent of ligand alone; blocked: VEGF-C binding to VEGFR-3,VEGF-C [3],~0.04 µg/mL
same,EC50 (read off the curve),VEGF-C Dimer,~0.001 µg/mL
same,EC50 (read off the curve),VEGF-C Monomer,~0.001 µg/mL
